Reference: paper PMC6750108, “Crystal Structure of 4-Hydroxyphenylpyruvate Dioxygenase in Complex with Substrate Reveals a New Starting Point for Herbicide Discovery” (Research, 2019)

Molecular target: the molecule itself
Experiment: crystal structure; AtHPPD-HPPA complex, hanging drop vapor diffusion, with CoCl2 and HPPA; reservoir 36% (w/v) PEG 400, 0.1 M NaCl, 0.1 M sodium acetate pH 5.0, 18°C; space group P 21, four molecules per asymmetric unit

B1: Arabidopsis thaliana 4-hydroxyphenylpyruvate dioxygenase (enzyme, UniProt P93836 1-445, looked up)
chain: MGHQNAAVSENQNHDDGAASSPGFKLVGFSKFVRKNPKSDKFKVKRFHHIEFWCGDATNVARRFSWGLGMRFSAKSDLSTGNMVHASYLLTSGDLRFLFTAPYSPSLSAGEIKPTTTASIPSFDHGSCRSFFSSHGLGVRAVAIEVEDAESAFSISVANGAIPSSPPIVLNEAVTIAEVKLYGDVVLRYVSYKAEDTEKSEFLPGFERVEDASSFPLDYGIRRLDHAVGNVPELGPALTYVAGFTGFHQFAEFTADDVGTAESGLNSAVLASNDEMVLLPINEPVHGTKRKSQIQTYLEHNEGAGLQHLALMSEDIFRTLREMRKRSSIGGFDFMPSPPPTYYQNLKKRVGDVLSDDQIKECEELGILVDRDDQGTLLQIFTKPLGDRPTIFIEIIQRVGCMMKDEEGKAYQSGGCGGFGKGNFSELFKSIEEYEKTLEAKQLVG
notes: 4-hydroxyphenylpyruvate dioxygenase, Arabidopsis thaliana, UniProtKB P93836, full-length protein in pET15b; Crystallised with cobalt(II) chloride and the substrate HPPA; also called AtHPPD; HPPD; source: E. coli BL21 (DE3), purified (Ni-NTA, anion exchange, size exclusion chromatography)
- binding result: binds
